Test results published in the DeepSol protein solubility set.

Assay: soluble on expression in E. coli; label from the status in PepcDB or PDB records

Soluble on expression in E. coli, soluble:
MMKKKWYIVLTMSGYEEKVKENIEKKVEATGIKNLVGRIVIPEEVVLDATSPSERLILSPKAKLHVNNGKDVNKGDLIAEEPPIYARRSGVIVDVKNVRKIVVETIDRKYTKTYYIPESAGIEPGLRVGTKVKQGLPLSKNEEYICELDGKIVEIERMKKVVVQTPDGEQDVYYIPLDVFDRDRIKKGKEVKQGEMLAEARKFFAKVSGRVEVVDYSTRKEIRIYKTKRRKLFPGYVFVEMIMNDEAYNFVRSVPYVMGFVSSGGQPVPVKDREMRPILRLAGLEEYEEKKKPVKVELGFKVGDMVKIISGPFEDFAGVIKEIDPERQELKVNVTIFGRETPVVLHVSEVEKIE, GSVAVEDQPDVSAVLSAYNQQGDPTMYEEYYSGLKHFIECSLDCHRAELSQLFYPLFVHMYLELVYNQHENEAKSFFEKFHGDQECYYQDDLRVLSSLTKKEHMKGNETMLDFRTSKFVLRISRDSYQLLKRHLQEKQNNQIWNIVQEHLYIDIFD, GQANHPTAAVVTEKQQMLEQHLQDVRKRVQDLEQKMKVVENLQDDFDFNYKTLKSQGDMQDLNGNNQSVTRQKMQQLEQMLTALDQMRRSIVSELAGLLSAMEYVQKTLTDEELADWKRRQQIACIGGPPNICLDRLENWITSLAESQLQTRQQIKKLEELQQKVSYKGDPIVQHRPMLEERIVELFRNLMKSAFVVERQPCMPMHPDRPLVIKTGVQFTTKVRLLVKFPELNYQLKIKVCIDKDSGDVAALRGSRKFNILGTNTKVMNMEESNNGSLSAEFKHLTLREQRCGNGGRANCDASLIVTEELHLITFETEVYHQGLKIDLETHSLPVVVISNICQMPNAWASILWYNMLTNNPKNVNFFTKPPIGTWDQVAEVLSWQFSSTTKRGLSIEQLTTLAEKLLGPGVNYSGCQITWAKFCKENMAGKGFSFWVWLDNIIDLVKKYILALWNEGYIMGFISKERERAILSTKPPGTFLLRFSESSKEGGVTFTWVEKDISGKTQIQSVEPYTKQQLNNMSFAEIIMGYKIMDATNILVSPLVYLYPDIPKEEAFGKYCR, MTNNPLIPQSKLPQLGTTIFTQMSALAQQHQAINLSQGFPDFDGPRYLQERLAHHVAQGANQYAPMTGVQALREAIAQKTERLYGYQPDADSDITVTAGATEALYAAITALVRNGDEVICFDPSYDSYAPAIALSGGIVKRMALQPPHFRVDWQEFAALLSERTRLVILNTPHNPSATVWQQADFAALWQAIAGHEIFVISDEVYEHINFSQQGHASVLAHPQLRERAVAVSSFGKTYHMTGWKVGYCVAPAPISAEIRKVHQYLTFSVNTPAQLALADMLRAEPEHYLALPDFYRQKRDILVNALNESRLEILPCEGTYFLLVDYSAVSTLDDVEFCQWLTQEHGVAAIPLSVFCADPFPHKLIRLCFAKKESTLLAAAERLRQL, MPTPGTGSVPELQLVPFQLGHFPILQRWFATEKELVQWAGPALRHPLSLEQMHEDLAESRRRPPLRLLWSACRDDQVIGHCQLLFDRRNGVVRLARIVLAPSARGQGLGLPMLEALLAEAFADADIERVELNVYDWNAAARHLYRRAGFREEGLRRSATRVGRERWNVVLMGLLRQEWAAGGAGND, MSLTESESGGDTMMAAVLDVLPHGRPGDDRPQHQKEPLAYALDIDEFYIYELQLADKDADIAFGDRIDLTEFGRVTEVEFEDIPSGARSELDYAVEEVVEANEQRFVDFYNDAQPITLRLHQLNLLPGIGKKLRNTILDERKRKPFESFEDLEKRVSGLHSPKETLVERILEELQDDDLKYRLFVRREEQSSEGHHHHHH, SLARMSRRSRGAAGAQSVVKPETPMAQVLHQFNYCPCQYLEQNWIVPKQPWLLNLDGWRDNPNFNLWCLEEWALAPVPETAFNKPHHSLALLPPDALSTLMLTIGGALHSFAMRQVVLKKPKQCLNNVFGLDIARFLIQQGPMLLSQWPKGWQKALPDVMKEDEVERHMLKQGYAWMKFILASSSHDILLRWQFKLDQSLSQVKENTSWLVEEQRDLAYRLTKKIAKQVIPQWFHLLK, METLTVHAPSPSTNLPSYGNGAFSLSAPHVPGAGPLLVQVVYSFFQSPNMCLQALTQLEDYIKKHGASNPLTLQIISTNIGYFCNADRNLVLHPGISVYDAYHFAKPAPSQYDYRSMNMKQMSGNVTTPIVALAHYLWGNGAERSVNIANIGLKISPMKINQIKDIIKSGVVGTFPVSTKFTHATGDYNVITGAYLGNITLKTEGTLTISANGSWTYNGVVRSYDDKYDFNASTHRGIIGESLTRLGAMFSGKEYQILLPGEIHIKESGKRAAHHHHHH, FTSPAVKRLLGWKQGDEEEKWAEKAVDALVKKLKKKKGAMEELEKALSCPGQPSNCVTIPRSLDGRLQVSHRKGLPHVIYCRVWRWPDLQSHHELKPLECCEFPFGSKQKEVCINPYHYKRVES

Soluble on expression in E. coli, not soluble:
TLTDTMNDLAVRMAESFQAEEVGFFHIDHFENLTLLPGSTAFFKEAKPSDFYNELKEKLYEGEKGVFIGNGQSVFGKAGYGSLMAAPMIQNDRLLGFAVLLKQELYAFTFEMYKLFQALIHHATLAVTNSMLRDRLEHLVKTDQL, MTNQLPKISEAELEIMKVLWLKSPQTANEIIEELEDPMDWKPKTIRTLINRLVQKEAVSYHQDKGRMYAYYPLVSQDNYLQVETKSLLKRFCGAAFKPLLVNFLKEEKLSSEDINELKRLLDEKTEENKRKD, MGSDKIHHHHHHMNHTSADTTLRAFAQLIAEGTCLPAEERAPGQLKTGVDLGTANIVLSVVDANNRPVTGAMFPSTVVRDGIVVDYVGAVSVVRRLKAELEDRLGCPLTFAGTAIPPGILAGNVKAIANVVEAAGFEVADVSDEPTAASRVLGLREGAVVDVGGGTTGISILKNGEVVFTDDEATGGTHMTLVLAGAHGVSFEEAEAMKKDTAAARDVFAVVQPVVEKMASIVKRCLKGYDVETVYVVGGACTFDQFEQVFRKEIGLTIVKPAEPLLVTPLGIAMYGATPGEGAL, PVSGTPSGITELDNVTTGGQPGELIIIAARPAMGKTTFAQLVAQSTLNKYPDASIQFYSQEMPADQLVQRFMSMRSRISLQSIRQATELTELAWSKIAEAMGYIMNNWKDRLLIDDEPSLPPYRLRTKVRRNTRLYGKPKAIIIDYIQLMRSTGKFENRNLELAEISSELKKLAKETGCPVYALSQLNRSLEQRANKRPVNSDL, MESADGEIEALCSIWDGVHVESKLEASRRYLKHKIKSLEDESTSASVLIEMTVSEGYPAVSPTVTLSNPRGIGEPEFRELQRQIQEIIEQNSDEMPIICQIFQHCSDFLTENQHQNMDCSICLICLASSPIIVTACDHFMHFACFNRYLTECLTGLRQEIQDAQKHMKEQVETNIFCPVCRAQLTDSNTIHNYRENVQLMIKNCKKNQKTLKNKKRRSSTTTEDVQKTIKRWHEEQRKLSKIYEKQKEKGGIIDIEEEKKRRQFFIETTTNEETDEAESTDIAENID, MAHHHHHHMSQLYRGRSYQNILRKLPRNLVVFDGHCLMCQARVRHVLERNFSYFSFIRIMQGVDPVKLEANKMLFCSFDSVEWREVRRNFPHLLNDADGVVLIEKVPSKTASFLSRVRQGQKQRRQQGRTGGMNSSEEKRGLKNFFQTNNFSFPLASSSVTTPRGLAGGFDGVEEDVDIVVSVKYEAVCRIGMKLDRWLLRTLFRCLYYMLPRWMGDRWYDYILRRRQLWGTSEEDAVRYPKRVPGLKERTWKL, MGSDKIHHHHHHMNQPDAYLWEQHIPGGCHWSGILRRGTTLRMTDVSGGANASVLFFNQEEKLERYNMADTLKSQHTFRLTKGHACHSDMGRIFCCITADSAGWHDTVCGLSDADLIRRKYGTARYQEHRNQMFRNGLDGMLIELGKWGLGMRDVVSNINFFSKVTANSAGELTFHSGNSKAGDHVDLSFEMDTLVVLSAAPHPLDPSTTYQPGAVNLAAFATPSSAIAECAHISENQRARQNTECLYACHGGAA, PKLVCLVSSSNSFATFLAEEIPIISNKGIGVKGIKLKAEEKVRFAMPLQD, MSADTLQIAYSPCPNDTFVFDALAHGRVPGAPALDVTFADIDITNGMAERGELDVLKVSYAVLPYVLDDWALLPCGGALGRGCGPLVLTREADADLRGRTVAVPSETSTAYLLFRLWAADTVPGGVGEIVVMPFHEIMPAVRDGKVDAGLVIHEARFTYQNYGLHKLADMGEHWEHTTGLPIPLGAIIARRSLGAPALTRLADAVRASVRAAWDDPEASRPYVMEHAQEMDPAVADQHIGLYVNEFTADLGEDGYAAIRGLLTRAAAEGLVPALGPDALAFP, FSDIASLQRFIKLNQSDWLFEMLATERFTSYFQPIVSIKDTSQIFGYESLLRGLDEEGNLMLPTPIMELATEAGLIPQLDQIARLSAITEFSRYKVSGHIFINFAPTSLYDPAFCLSSSVEAIDTAEISHDRVVFEVVESDNPQDLTHLKAVLKYYRDAGFLVALDDLGSGYSSLNLLHQLRPDFIKLDMELIRDVHQDLYKASITEKLLEITQKLNIQTVAEGIECIEELNWLRERGANLAQGYLIAKP, MSFTDEKIRLNIGGTIFETSKSTLTKFDGFFKTLLETDIPIQKDDSNCIFIDRSPRHFEKILNYLRDGADVDLLPESEKEVREILKEAQFYLLEGLMELCKRSSCKIRTFESYHHLLKLIAEAGKPVLVMFYLVKDNRIVHVPNNFEFLDFLEKHQGKLDIYFKESPYETTHQNPSQFLPPGREEAAPSWTYCFYNTPKLPFRFTISFVEKLEEDIEFVLGNLNK, MGSDKIHHHHHHMETIGQTLAKKDNHKYDTEKMTQAILSDQEIANFIAAHHLSKEQIKISLPKFNQYRLERTRFENHDQAYIAKGYQPLLVMNEGYADVAYKETKELIAAKKTQAISDRINVVSLPRSYKNISFDDINLDDVKRLDVFKRVADFVEQYPNPEQKGLYLYGDMGIGKSYLMAAMAHELSEQRGAATTLLHFPSFTIDVKNAINTGTVKKEIDAVKTADILILDDIGAEQSTSWIRDEVLQVILQYRMLEELPTFFTSNYSFKDLEAKLANIKGSDETWQAKRVMERIRYLAKEIHLEGENRR, MQENQQITKKEQYNLNKLQKRLRRNVGEAIADFNMIEEGDRIMVCLSGGKDSYTMLEILRNLQQSAPINFSLVAVNLDQKQPGFPEHVLPEYLEKLGVEYKIVEENTYGIVKEKIPEGKTTCSLCSRLRRGILYRTATELGATKIALGHHRDDILQTLFLNMFYGGKMKGMPPKLMSDDGKHIVIRPLAYCREKDIQRFADAKAFPIIPCNLCGSQPNLQRQVIADMLRDWDKRYPGRIETMFSAMQNVVPSHLCDTNLFDFKGITHGSEVVNGGDLAFDREEIPLQPACWQPEEDENQLDELRLNVVEVKLEHHHHHH, MGSDKIHHHHHHMEHTRLHNKGLTLDKIFLKTLRTTHNGFLTDGKDRIGYGEFYDRVIAIAEELHRDLGENRTVSVMDWNTLNFATLLYAVPLSGNVLHPVDVRQPPEQVMSSMKEAQSSYLLYSADFGRLADAVKTSGIVKEDNIRSTKEVFDESTDHKPGNAGLPELEEDRIASVLFSSGTTGKPKGVRYRHRDIVLTIWAMETNLSAFPGPARLASSDTVFSLIPFFHLWSWGTLYISTLIGASYVVGGRFDPGSTSDLIKRNGVTWMSMVPTMFNALISWDRNSLDGMKILIGGSAIPSGILNFASDHQIELTGIYGFTDGLAAGIGTSNINGSLSERNADAVNAITPLVFTDFEVEGENNEIKFRSPWIPEGYFNVQEERAYRDGWFYPGDSAEFTQDGKIRIRDRIKDLIKSGGEFIPSALLEYYISEIGDIGDVAVIGVHDDKWIERPVAIYRTRSGATVNDEIIRSYLKDLSNKGLIRDWWIPDRFIPVDSMPMTGTGKIDKKTLRAMLEKGDLRTDRK
